From patent US20190389914A1 (University of California, published 2019)
Substitutions are numbered along the chain they refer to.

What was measured:
Assay in all cases: Y2H, beta-gal staining
[1] = biological target: T1, GAL4 activation domain fusion to HAB1 I383G (Arabidopsis thaliana (Mouse-ear cress), UniProt Q9CAJ0 4-511)
T1 construct: Mutant of the pACT-HAB1 template, which lacks the three N-terminal amino acids of HAB1
T1 sequence: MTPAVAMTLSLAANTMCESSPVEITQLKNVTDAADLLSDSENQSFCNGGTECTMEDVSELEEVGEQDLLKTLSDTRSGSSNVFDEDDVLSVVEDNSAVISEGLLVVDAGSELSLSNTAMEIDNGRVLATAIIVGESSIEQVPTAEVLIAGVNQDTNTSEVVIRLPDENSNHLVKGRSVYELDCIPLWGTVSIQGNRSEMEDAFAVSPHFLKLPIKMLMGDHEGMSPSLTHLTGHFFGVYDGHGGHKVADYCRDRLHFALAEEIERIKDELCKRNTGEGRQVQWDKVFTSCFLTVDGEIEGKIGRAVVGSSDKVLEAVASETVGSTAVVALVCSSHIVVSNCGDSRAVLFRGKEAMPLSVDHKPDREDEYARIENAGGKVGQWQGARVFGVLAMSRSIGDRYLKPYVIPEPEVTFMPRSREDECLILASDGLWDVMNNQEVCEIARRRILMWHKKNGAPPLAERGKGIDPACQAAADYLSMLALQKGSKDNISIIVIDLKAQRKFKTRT

[2] = biological target: T2, GAL4 activation domain fusion to HAB1 V393Q (Arabidopsis thaliana (Mouse-ear cress), UniProt Q9CAJ0 4-511)
T2 construct: Mutant of the pACT-HAB1 template, which lacks the three N-terminal amino acids of HAB1
T2 sequence: T1 sequence with G380I, V390Q

[3] = biological target: T3, GAL4 activation domain fusion to HAB1 E203T (Arabidopsis thaliana (Mouse-ear cress), UniProt Q9CAJ0 4-511)
T3 construct: Mutant of the pACT-HAB1 template, which lacks the three N-terminal amino acids of HAB1
T3 sequence: T1 sequence with E200T, G380I

[4] = biological target: T4, GAL4 activation domain fusion to HAB1 V393K (Arabidopsis thaliana (Mouse-ear cress), UniProt Q9CAJ0 4-511)
T4 construct: Mutant of the pACT-HAB1 template, which lacks the three N-terminal amino acids of HAB1
T4 sequence: T1 sequence with G380I, V390K

[5] = biological target: T5, GAL4 activation domain fusion to HAB1 E203W (Arabidopsis thaliana (Mouse-ear cress), UniProt Q9CAJ0 4-511)
T5 construct: Mutant of the pACT-HAB1 template, which lacks the three N-terminal amino acids of HAB1
T5 sequence: T1 sequence with E200W, G380I

Measured: binding result

B1: GAL4 DNA binding domain fusion to PYR1 (pBD-PYR1), wild type (receptor)
chain: MKLLSSIEQACDICRLKKLKCSKEKPKCAKCLKNNWECRYSPKTKRSPLTRAHLTEVESRLERLEQLFLLIFPREDLDMILKMDSLQDIKALLTGLFVQDNVNKDAVTDRLASVETDMPLTLRQHRISATSSSEESSNKGQRQLTVSMPSELTPEERSELKNSIAEFHTYQLDPGSCSSLHAQRIHAPPELVWSIVRRFDKPQTYKHFIKSCSVEQNFEMRVGCTRDVIVISGLPANTSTERLDILDDERRVTGFSIIGGEHRLTNYKSVTTVHRFEKENRIWTVVLESYVVDMPEGNSEDDTRMFADTVVKLNLQKLATVAEAMARNSGDGSGSQVT
notes: Yeast two-hybrid bait expressed in S. cerevisiae; also called WT
no binding (tested: 10 µM ABA): [1] | [2] | [3] | [4] | [5]
